The values below come from patent US20250352662A1 (MERSANA THERAPEUTICS, published 2025).

Several values for one entry are separate records, joined by “and”; a condition that tells them apart may be missing. Equal entries are not always repeated.

T1: human NaPi2b on OVCAR3 human ovarian cancer cells (human, UniProt O95436 1-690)
T1 construct: also called SLC34A2; sodium-dependent phosphate transport protein 2B
T1 sequence: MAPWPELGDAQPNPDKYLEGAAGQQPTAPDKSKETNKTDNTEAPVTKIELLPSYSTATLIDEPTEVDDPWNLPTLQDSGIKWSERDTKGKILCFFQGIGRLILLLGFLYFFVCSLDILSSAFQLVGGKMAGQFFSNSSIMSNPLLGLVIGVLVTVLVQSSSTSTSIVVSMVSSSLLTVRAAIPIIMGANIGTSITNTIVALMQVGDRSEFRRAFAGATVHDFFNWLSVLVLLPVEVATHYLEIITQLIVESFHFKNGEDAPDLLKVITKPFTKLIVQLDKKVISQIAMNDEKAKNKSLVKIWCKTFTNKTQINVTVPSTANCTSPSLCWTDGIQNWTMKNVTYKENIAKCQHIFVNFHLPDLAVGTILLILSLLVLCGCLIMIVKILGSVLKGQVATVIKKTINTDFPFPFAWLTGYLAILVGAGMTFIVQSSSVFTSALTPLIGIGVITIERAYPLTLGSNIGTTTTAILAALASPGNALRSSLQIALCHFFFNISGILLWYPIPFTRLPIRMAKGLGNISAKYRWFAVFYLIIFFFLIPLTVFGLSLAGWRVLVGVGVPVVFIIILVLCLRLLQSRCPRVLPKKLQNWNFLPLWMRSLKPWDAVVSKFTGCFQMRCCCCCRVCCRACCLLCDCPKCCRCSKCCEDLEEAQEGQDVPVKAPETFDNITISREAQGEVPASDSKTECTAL

B1: XMT-1535 Conjugate 8b-3, DAR 6.4 (antibody, human IgG1, kappa)
heavy: not shown
light: DIQMTQSPSSLSASVGDRVTITCSASQDIGNFLNWYQQKPGKTVKVLIYYTSSLYSGVPSRFSGSGSGTDYTLTISSLQPEDFATYYCQQYSKLPLTFGQGTKLELKRRTVAAPSVFIFPPSDEQLKSGTASVVCLLNNFYPREAKVQWKVDNALQSGNSQESVTEQDSKDSTYSLSSTLTLSKADYEKHKVYACEVTHQGLSSPVTKSFNRGEC
modifications: STING agonist linker-drug on cysteine thiols of the reduced antibody, positions not given; STING agonist linker-drug (Compound 7) joined through maleimide to cysteine thiols of the TCEP-reduced antibody, positions not given; DAR 6.4 per antibody
B2: XMT-1535 (antibody, human IgG1, kappa)
heavy: not shown
light: DIQMTQSPSSLSASVGDRVTITCSASQDIGNFLNWYQQKPGKTVKVLIYYTSSLYSGVPSRFSGSGSGTDYTLTISSLQPEDFATYYCQQYSKLPLTFGQGTKLELKRRTVAAPSVFIFPPSDEQLKSGTASVVCLLNNFYPREAKVQWKVDNALQSGNSQESVTEQDSKDSTYSLSSTLTLSKADYEKHKVYACEVTHQGLSSPVTKSFNRGEC
notes: Unconjugated antibody, IgG1; also called anti-NaPi2b antibody; NaPi2b mAb
B3: XMT-1535 mIgG2a (antibody, V domains shown)
VH: QVQLVQSGAEVVKPGASVKMSCKASGYTFTGYNIHWVKQAPGQGLEWIGAIYPGNGDTSYKQKFRGRATLTADTSTSTVYMELSSLRSEDSAVYYCARGETARATFAYWGQGTLVTVSSG
VL: DIQMTQSPSSLSASVGDRVTITCSASQDIGNFLNWYQQKPGKTVKVLIYYTSSLYSGVPSRFSGSGSGTDYTLTISSLQPEDFATYYCQQYSKLPLTFGQGTKLELKR
notes: Unconjugated; variable domains are those of XMT-1535 by name only; also called XMT-1535 hIgG1-mIgG2a
B4: XMT-1535 mIgG2a Conjugate 32d, DAR 8.8 (antibody, V domains shown)
VH: QVQLVQSGAEVVKPGASVKMSCKASGYTFTGYNIHWVKQAPGQGLEWIGAIYPGNGDTSYKQKFRGRATLTADTSTSTVYMELSSLRSEDSAVYYCARGETARATFAYWGQGTLVTVSSG
VL: DIQMTQSPSSLSASVGDRVTITCSASQDIGNFLNWYQQKPGKTVKVLIYYTSSLYSGVPSRFSGSGSGTDYTLTISSLQPEDFATYYCQQYSKLPLTFGQGTKLELKR
notes: elsewhere called chimeric hIgG1-mIgG2a; the variable domains are those of XMT-1535 by name only

The test deals with T1, human NaPi2b on OVCAR3 human ovarian …. In words: flow cytometry on OVCAR3 cells, 1 h on ice, goat anti-human IgG-Alexa-647 detection, MFI; mean EC50. As to the method: OVCAR3 cells were grown to ˜80-95% confluency in RPMI 1640 medium supplemented with FBS (20%) and penicillin/streptomycin (1%). Cells were harvested and added to wells of a 96-well U bottom plate (50,000/well). The cells were pelleted (300×g, 5 minutes) and resuspended in solutions of test articles as indicated in Table 18 at concentrations ranging between 0.01 nM and 300 nM and incubated on ice for 1 hour.
On to B1, for which the EC50 is 8.13 nM.

Turning to B2, the 50% effective concentration (EC50) is 4.29 nM and 3.74 nM.

As to B3, the EC50 stood at 4.13 nM.

B4 gave an EC50 of 2.99 nM.
